Target: CD3 on Jurkat cells (Jurkat靶标细胞) (UniProt P07766)
Assay: flow cytometry, culture supernatant on Jurkat cells

UniProt P07766, sequence (P07766 23-207): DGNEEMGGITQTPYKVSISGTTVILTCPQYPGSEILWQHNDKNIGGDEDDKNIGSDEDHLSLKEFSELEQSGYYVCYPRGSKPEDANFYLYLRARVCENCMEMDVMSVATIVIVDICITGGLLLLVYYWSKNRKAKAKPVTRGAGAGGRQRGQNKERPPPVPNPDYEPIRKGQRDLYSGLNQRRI

B1: A30322 抗CD3单域抗体 (sdAb) (VHH, not shown: large carriers)
VHH: EVQLVECGGGLVQAGGSLRLSCAASGRTFDTMGWFRQAPGKEREFVAAVRWSSGNTYYGNTVKGRFTISRDTATNTVYLEMNSLKHEDTAVYYCAARLAGRGAADHWGQGTQVTVSS
结合MFI: 521 MFI

— patent CN106117361A
